The data set is described as follows: amyloid nucleation score (Sup35N fusion, yeast selection) (log enrichment); library NNK2; higher = more nucleation; inactive = no reads after selection. In short, it runs like this: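 The nucleation score is the log enrichment of output over input reads, calculated with DiMSum and centred on the mode score of non-aggregating sequences. Sequences with under 100 input reads were excluded. Reads came from Illumina sequencing of plasmid inserts from psi-negative yeast expressing Sup35N fused to peptides of 20 random codons, induced 24 hours with 100 μM copper sulfate and grown 7 days at 30°C without adenine and uracil.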

± gives the uncertainty stated by the source.

CNVLSRRNGKLRACFS came in with an amyloid nucleation score of 0.732 ± 0.4.

As to IWHSVWYP, the amyloid nucleation score is -0.318 ± 0.76.

SCRRWHLFLGWCIDVVESIY yielded an amyloid nucleation score of 1.56 ± 0.13. With YVSWCCGRFISYPVC the figure was 0.321 ± 0.19; with SNGCRRALL, “inactive”; with SACIIVN, -0.012 ± 1.1.

Consider FTKVFRLHYFMRLTSMYVAF, for which the amyloid nucleation score was -0.567 ± 1.1. With FKVLVSLALSRECS the figure was -0.75 ± 0.48; with IPTACEHKRSPRVQPQRNSA, 0.163 ± 0.4. In turn, VLYSFSGVTPWHKYPCNCV registered an amyloid nucleation score of 0.256 ± 0.46. With VLPTEYSGFFSTRQLPSLDS the figure was 0.137 ± 0.79. With IDVMVMVRQSAKEQSSVRGC the figure was 1.34 ± 0.2; with GWVMVVPFPCMIVVVSAVGS, -0.152 ± 0.4.

Substance QPSVL yielded an amyloid nucleation score of 0.524 ± 0.81.

With VFDVISI, the amyloid nucleation score is -0.064 ± 0.76. With SVRNNLAVGDKLFNVTADCN the figure was 0.168 ± 0.8; with RYQFSATPGVVRWKFEEYSD, -0.047 ± 0.46.

As to MIGKRGVFS, the amyloid nucleation score result was “inactive”. With SNFVTVSGTPPHIILMCKDW the figure was 4.71 ± 0.055; with KRYLWTGN, -0.534 ± 0.35. With TTFIRLVIITPWV the figure was 2.75 ± 0.15; with CAVGDPYCSAMFMMNLWGEK, 9.547 ± 0.052. With RYNLARSLLFHHNTCVFMSV the figure was -0.491 ± 0.53; with FDVVIGMFVNLITRSKCGEW, 1.61 ± 0.53; with LTVRELLFTSRRHRARRHSC, 1.81 ± 0.32. The substance ESYKCVFRLIDWNIDYILTV displayed an amyloid nucleation score of 0.855 ± 0.57. With GLAMFKYIMAIVRNF, the amyloid nucleation score was -0.855 ± 0.37.

SFYDARYFQCDVFAVVRIRR came in with an amyloid nucleation score of 0.853 ± 0.47. VIWIRTIKMHACTYVQQDVL showed an amyloid nucleation score of 0.806 ± 0.45. With TKEIVEGINTQLYRWTLFG the figure was -0.429 ± 0.25; with TVFPMREIEVLFDSIWYGFN, 1.71 ± 0.096. With AYTFSNSVNVCCVGVLEVIV the figure was 5.8 ± 0.077; with ITVFAGFLRCCYLCFLDNHS, “inactive”; with TSFGCWSQAYKMMRFDLCSV, -0.145 ± 0.21. As for SPHDVGNSIVIMGFRMWLN, the amyloid nucleation score was determined as 0.082 ± 0.44. With VTGTT the figure was -0.01 ± 1. Consider FGDSDRMRAGRLWFMWSLVA, for which the amyloid nucleation score turned out to be 0.639 ± 0.35. Take WNVFKLSGSSYV: the amyloid nucleation score was -0.483 ± 0.31. As to TIFIGVRVPS, the amyloid nucleation score was -0.224 ± 0.63.

Turning to NVYDRGVIGYMSNNVHTEGI, the amyloid nucleation score was -1.07 ± 1.1.

As for GLLLGMVFFCGSSTTNMGGI, the amyloid nucleation score came out at 5.902 ± 0.051.

VACETRRRA: the amyloid nucleation score is 4.948 ± 0.04.

Regarding WSCNRNCSIFDR, the amyloid nucleation score is -0.373 ± 0.45.

Take DEECTEPTWIGDEFDPLDIE: the amyloid nucleation score result was “inactive”.

As to AILSEGETGFVSDYRQVSEP, the amyloid nucleation score was -0.004 ± 0.34. Regarding EFMLSVRKVVPRIYGNNPRV, the amyloid nucleation score came to 2.78 ± 0.084. Turning to TIAPGRRYENVNKGCERRFI, the amyloid nucleation score was -1.76 ± 0.76. Turning to SAFTNRYHLPSERVGHWCPV, the amyloid nucleation score was found to be 0.224 ± 0.74. On to YVDWAG, for which the amyloid nucleation score was -1.56 ± 0.62. With TYLVQWMCCRWMPMHFRIMT the figure was -0.369 ± 0.79.

Substance CIFPPYVWYGIVMVYASMYG came in with an amyloid nucleation score of 6.602 ± 0.039. With SVNSC the figure was -0.654 ± 1; with TNADGRTGT, -0.385 ± 0.39; with VLWIGFYLNLYLPYLCNHVD, 3.37 ± 0.076. With SSASFSVHQYCYLLNPSF the figure was 1.45 ± 0.28; with LDILIYLKILDISFGNESCM, 0.002 ± 0.17. For CITLMYNTPFYKITALWQPF, the amyloid nucleation score was -0.484 ± 0.78. With INDSEVMRICLPVGFGHLEG, the amyloid nucleation score was 2.45 ± 0.077. With DVKWPYRLDFVKLYYIYKEG the figure was -1.88 ± 0.53. In the case of FESTAGTDKLRTEHLDPFAD, the amyloid nucleation score entry was “inactive”. Consider FVQCLWVAWGSSGSSWQKSE, for which the amyloid nucleation score turned out to be 5.541 ± 0.041. With DKGEEPELIV the figure was 0.742 ± 0.16. Substance TVKNRA displayed an amyloid nucleation score of 0.694 ± 0.51.

YISMKWEVAHNYWWILSGIP: the amyloid nucleation score was 0.444 ± 0.25. With KSSEHRGCLICTIIAVDL the figure was 6.977 ± 0.039.

Substance VPSHRPFVYHRKDLGFLGSV showed an amyloid nucleation score of 0.269 ± 0.6. With TNDLIRKFTLYMNQCDFNWS the figure was -0.633 ± 1.1.

TFMFDHRIGISDGLSTIMVI displayed an amyloid nucleation score of 0.923 ± 0.81. With IWTSRQTTIEAITRAHNPST the figure was 3.83 ± 0.084; with SYSFRVVDWVYILTYLRKFE, 1.65 ± 0.33; with AGLIRCLLRGTCNRNFFSLY, “inactive”.

As to RFWIEVEVYDVISFVYLERW, the amyloid nucleation score was 0.428 ± 0.34. With RQRVMHAHHCLLYLMVKHFI the figure was -0.675 ± 1.1; with FFSNRNCLE, -1.34 ± 0.64; with VNVYLFYYYPHSSHCYIF, 7.658 ± 0.056. With GFGLPTGEVVTNNMALGKTE the figure was -0.844 ± 0.49; with GHSIVLCCRSESPLKKSRYM, -0.432 ± 1; with MDPVWVYADFWMF, -0.78 ± 1.1.

For GVAMNNCGIMDSREHGFGIR, the amyloid nucleation score was 0.436 ± 0.36. With PVIRRLEFGWQNASYG the figure was -0.564 ± 0.76. With FITNFGACRYCCRWHM the figure was 6.184 ± 0.042; with MISESF, 0.403 ± 0.56. AIRRPDRSQFLAYLVSSCKF: the amyloid nucleation score is -0.218 ± 0.45.

CTDQRGLSIIVLGYNSHSMR showed an amyloid nucleation score of 5.682 ± 0.054. With RWSFRLSTAIQGQPWSTPGD the figure was 5.95 ± 0.06; with TRPCMFFRIELISLSTVLAR, 0.552 ± 0.46. With HLFLRFADSSYWIS the figure was 1.24 ± 0.35; with YLCGFNIVPHRYINFRVWTE, 4.39 ± 0.11.

With APSHPSTVFLYICLLFENKP, the amyloid nucleation score is -0.128 ± 0.55.

For the substance SLSFLKSGPLA, the amyloid nucleation score result was “inactive”.

As to NFADWTCFDIQVR, the amyloid nucleation score was -0.186 ± 0.32. With QYFFNMMLMMDMLSLGGLSY the figure was -0.063 ± 0.45; with HRKAYEPWFGCNMTYAGLGN, -0.232 ± 0.65.

Consider QNRKERYVYIFRAEWFPWCG, for which the amyloid nucleation score was -1.13 ± 0.76. Substance EPTMVRFDSLFVSDCYMSA yielded an amyloid nucleation score of 0.499 ± 0.4. With RKVLLVGCCPLVLKIVFCSV the figure was 7.734 ± 0.048; with VSYSGNRYWCSFVNKKAGGN, 1.32 ± 0.27.

Substance IGCGARLEGKMMACMSRDRQ yielded an amyloid nucleation score of 0.461 ± 0.64.

YMIYCFITVGCFISTLHYCG showed an amyloid nucleation score of 1.68 ± 0.15.

Consider SNGLGLQCGIRGKVFNELLS, for which the amyloid nucleation score was -0.674 ± 0.42.

On to QWGSMVSCRCYRPPTEGPGW, for which the amyloid nucleation score is -0.605 ± 0.76. With FAIDMRYVGGQGCCILYIRR the figure was 0.075 ± 0.44; with TSGQNESDA, 0.578 ± 0.81; with TLEKSFPLEFVV, 0.204 ± 0.65.

RVLRLVSVLLFDVILSVE gave an amyloid nucleation score of 4.85 ± 0.085. On to GWVCRKRWVVLYMKICMIRR, for which the amyloid nucleation score is -0.249 ± 0.21.

Consider MPLQFDPVWFILNTLLRPHA, for which the amyloid nucleation score is -0.228 ± 0.42.

In the case of FKFTWRTFESNNLMVRVWLL, the amyloid nucleation score was -1.29 ± 0.55. In turn, YNKRVSWKYWMWHEYAMRGW showed an amyloid nucleation score of 5.21 ± 0.057. With RSLVDLMRGFDIV the figure was 5.62 ± 0.062. With EHIASLVMNAANSTNPVGQK the figure was -0.339 ± 0.76; with FSMRCYRVVLKYVSTGW, 0.905 ± 0.35. With SSLVVMMGILMEVTVAGLGV the figure was 0.241 ± 0.37; with DANTRGHSCRNCM, 0.195 ± 0.76.

Turning to NFKECNLDCKSHLRNVWLRQ, the amyloid nucleation score result is “inactive”. With KYTVSLVDLGCFQSKGCDST the entry was “inactive”; with HSFGRKYFFTF, -0.307 ± 0.55. Turning to RVRDYSYGGSQRLGGYMLG, the amyloid nucleation score was -0.64 ± 0.61. For the substance SVFSYMYRLNSALLYFFYQS, the amyloid nucleation score result was “inactive”.

Regarding VSGSSHVVKWVMKEGVIFI, the amyloid nucleation score entry was “inactive”. With APRGLTFVQQSVSSIHLTAK the figure was 0.345 ± 0.39; with VSGLPN, “inactive”. With PTSNLSWVT the figure was 1.71 ± 0.17; with VWYRLTDAVYKRLTFLDII, -0.416 ± 0.56. With LLIKSSCFCSLDVFFS the figure was 3.69 ± 0.089; with YCNYVTRDSFAFMSSFFMSA, -1.55 ± 1.1; with FMMIRV, “inactive”.

As for SFDVLL, the amyloid nucleation score was -0.568 ± 0.64. With FRSGGPLFFHSMGTGFVFVH the figure was -1.5 ± 1.1; with RLPFYVW, “inactive”. Consider LSACIALASGYVGISGW, for which the amyloid nucleation score result is “inactive”. With SRDVAAYNRRRRFAVLGWGE the figure was 0.44 ± 0.38; with CWVRISDLCLYKFVGVPMSV, 0.312 ± 0.8; with SFDIPT, -0.444 ± 0.63.

The substance YSGDRDTVLYHCTRVGAESV registered an amyloid nucleation score of 0.109 ± 0.63. With ASNAWDRLGSVPGFSRGRLR the figure was -0.308 ± 0.48; with SYSVQAALVCVFGGCNHVGS, 9.383 ± 0.048.

On to PRVGRRGSLRKCPWLLWYVL, for which the amyloid nucleation score is 0.052 ± 0.45. With HVRVYHPGQMNCSRYNTMQ the figure was 0.217 ± 0.65.

The values above are taken from the supplement of paper PMC12042874.
